Experimental data from patent US20140294898A1.
Positions of bridges follow the written chain, without caps; N, C: chain ends. Non-standard residues stand in square brackets, D forms with d. Phe(F5) = N[C@@H](Cc1c(F)c(F)c(F)c(F)c1F)C(=O)O; NMeF = CN[C@@H](Cc1ccccc1)C(=O)O; NMeNle = CCCC[C@H](NC)C(=O)O; Sar = CNCC(=O)O

Key:
human PD-L1 (human) = human PD-L1 (human) (UniProt Q9NZQ7); experiment: cell binding assay (CBA), PE-labeled PD-1-Ig on cells over-expressing human PD-L1; cluster 3 = IC50 0.07431 to >10 uM or not done
Chain of human PD-L1 (human) (Q9NZQ7 19-290): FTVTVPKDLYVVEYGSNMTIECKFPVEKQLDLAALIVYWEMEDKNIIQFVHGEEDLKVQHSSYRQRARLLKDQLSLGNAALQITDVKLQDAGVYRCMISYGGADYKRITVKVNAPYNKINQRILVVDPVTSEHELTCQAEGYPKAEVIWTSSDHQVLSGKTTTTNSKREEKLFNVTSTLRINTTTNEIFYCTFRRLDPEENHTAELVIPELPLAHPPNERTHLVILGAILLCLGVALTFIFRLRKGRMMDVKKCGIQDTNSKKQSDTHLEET

[1] = biological target: hPDL1(19-239)-TVMV-His (human) (UniProt Q9NZQ7); experiment: HTRF competition of PD-1-Ig binding to PD-L1-His; cluster 3 = IC50 0.03045 to >10 uM or not done
Chain of hPDL1(19-239)-TVMV-His (human) (Q9NZQ7 other isoform, or with tags, fused parts or gaps limits assumed): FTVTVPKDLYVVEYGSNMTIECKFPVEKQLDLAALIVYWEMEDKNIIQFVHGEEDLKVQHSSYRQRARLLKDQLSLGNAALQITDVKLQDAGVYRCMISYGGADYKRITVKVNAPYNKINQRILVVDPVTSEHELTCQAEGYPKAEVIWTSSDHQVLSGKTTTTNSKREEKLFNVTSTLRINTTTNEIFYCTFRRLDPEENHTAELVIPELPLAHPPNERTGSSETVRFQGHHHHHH

B1: Example 3078 (peptide)
peptide: {CH2CO}-[Phe(F5)][NMeF][NMeNle][Sar]DV[NMeF]Y[Sar]WYLCG-NH2
modifications: thioether N-13
SMILES: CCCC[C@H]1C(=O)N(C)CC(=O)N[C@@H](CC(=O)O)C(=O)N[C@@H](C(C)C)C(=O)N(C)[C@@H](Cc2ccccc2)C(=O)N[C@@H](Cc2ccc(O)cc2)C(=O)N(C)CC(=O)N[C@@H](Cc2c[nH]c3ccccc23)C(=O)N[C@@H](Cc2ccc(O)cc2)C(=O)N[C@@H](CC(C)C)C(=O)N[C@H](C(=O)NCC(N)=O)CSCC(=O)N[C@@H](Cc2c(F)c(F)c(F)c(F)c2F)C(=O)N(C)[C@@H](Cc2ccccc2)C(=O)N1C
CBA IC50 cluster (human PD-L1 (human)): 3 cluster
HTRF IC50 cluster [1]: 3 cluster
